What was measured:
Assay in all cases: cell-based or functional assay
[1] = target: HIV-1 Env pseudovirus 3817.v2.c59 (HIV-1)
[2] = target: HIV-1 Env of pseudovirus Ce1176_A3 (HIV-1)
[3] = target: HIV-1 Env pseudovirus 3103.v3.c10 (HIV-1)
[4] = target: HIV-1 Env of pseudovirus QH0692.42 (HIV-1)
[5] = target: HIV-1 Env pseudovirus 231965.c01 (HIV-1)
[6] = target: HIV-1 Env pseudovirus T255-34 (HIV-1)
[7] = target: HIV-1 Env of pseudovirus ZM53M.PB12 (HIV-1)
[8] = target: HIV-1 Env pseudovirus X1254_c3 (HIV-1)
[9] = target: HIV-1 Env of pseudovirus Q842.d12 (HIV-1)
[10] = target: HIV-1 Env of pseudovirus CNE53 (HIV-1)
[11] = target: HIV-1 Env pseudovirus T278-50 (HIV-1)
[12] = target: HIV-1 Env of pseudovirus WEAU_d15_410_787 (HIV-1)
[13] = target: HIV-1 Env pseudovirus BJOX015000.11.5 (HIV-1)
[14] = target: HIV-1 Env pseudovirus 3301.v1.c24 (HIV-1)
[15] = target: HIV-1 Env pseudovirus 231966.c02 (HIV-1)
[16] = target: Env of HIV-1 pseudovirus CNE58 (HIV-1)
[17] = target: Env of HIV-1 pseudovirus SC422661.8 (HIV-1)
[18] = target: Env of HIV-1 pseudovirus ZM214M.PL15 (HIV-1)
[19] = target: Env of HIV-1 pseudovirus Q769.d22 (HIV-1)
[20] = target: Env of HIV-1 pseudovirus CNE30 (HIV-1)
[21] = target: Env of HIV-1 pseudovirus ZM135M.PL10a (HIV-1)
[22] = target: Env of HIV-1 pseudovirus TRJO4551.58 (HIV-1)
[23] = target: Env of HIV-1 pseudovirus 6240_08_TA5_4622 (HIV-1)
[24] = target: Env of HIV-1 pseudovirus CNE19 (HIV-1)
[25] = target: Env of HIV-1 pseudovirus ZM197M.PB7 (HIV-1)
[26] = target: Env of HIV-1 pseudovirus WEAU_d15_410_787 (HIV-1)
[27] = target: Env of HIV-1 pseudovirus CNE21 (HIV-1)
[28] = target: Env of HIV-1 pseudovirus Ce2060_G9 (HIV-1)
[29] = target: Env of HIV-1 pseudovirus T250-4 (HIV-1)
[30] = target: HIV-1 Env of pseudovirus 0260.v5.c36 (HIV-1)

8ANC195 (antibody)
IC50 (Titer in TZM.bl cells) [1]: 1 µg/mL
IC80 (Titer in TZM.bl cells) [1]: 5.3 µg/mL
IC50 [2]: 4.45 µg/mL
IC80 [2]: 35.2 µg/mL
IC50 (Titer in TZM.bl cells) [3]: 48.1 µg/mL
IC80 (Titer in TZM.bl cells) [3]: > 50 µg/mL
IC50 [4]: 2.71 µg/mL
IC80 [4]: 17.1 µg/mL
IC50 (Titer in TZM.bl cells) [5]: 2.36 µg/mL
IC80 (Titer in TZM.bl cells) [5]: 2.36 µg/mL
IC50 (Titer in TZM.bl cells) [6]: 0.54 µg/mL
IC80 (Titer in TZM.bl cells) [6]: 8.09 µg/mL
IC50 [7]: > 30 µg/mL
IC80 [7]: > 30 µg/mL
IC50 (Titer in TZM.bl cells) [8]: 6.95 µg/mL
IC80 (Titer in TZM.bl cells) [8]: 6.95 µg/mL
IC50 [9]: > 30 µg/mL
IC80 [9]: > 30 µg/mL
IC50 [10]: > 50 µg/mL
IC80 [10]: > 50 µg/mL
IC50 (Titer in TZM.bl cells) [11]: > 50 µg/mL
IC80 (Titer in TZM.bl cells) [11]: > 50 µg/mL
IC50 [12]: > 50 µg/mL
IC80 [12]: > 50 µg/mL
IC50 (Titer in TZM.bl cells) [13]: 0.97 µg/mL
IC80 (Titer in TZM.bl cells) [13]: 4.3 µg/mL
IC50 (Titer in TZM.bl cells) [14]: > 50 µg/mL
IC80 (Titer in TZM.bl cells) [14]: > 50 µg/mL
IC50 (Titer in TZM.bl cells) [15]: 0.54 µg/mL
IC80 (Titer in TZM.bl cells) [15]: 2.98 µg/mL

10-1074 (antibody)
IC50 [16]: 0.267 µg/mL
IC80 [16]: 0.968 µg/mL
IC50 [17]: 0.091 µg/mL
IC80 [17]: 0.418 µg/mL
IC50 [18]: 0.174 µg/mL
IC80 [18]: 2.37 µg/mL
IC50 [19]: > 50 µg/mL
IC80 [19]: > 50 µg/mL
IC50 [20]: 0.363 µg/mL
IC80 [20]: 1.2 µg/mL
IC50 [21]: 0.069 µg/mL
IC80 [21]: 0.367 µg/mL
IC50 [22]: 0.17 µg/mL
IC80 [22]: 0.634 µg/mL
IC50 [23]: 0.068 µg/mL
IC80 [23]: 0.306 µg/mL
IC50 [24]: 50 µg/mL
IC80 [24]: > 50 µg/mL
IC50 [25]: > 50 µg/mL
IC80 [25]: > 50 µg/mL
IC50 [26]: 0.104 µg/mL
IC80 [26]: 0.375 µg/mL
IC50 [27]: 0.067 µg/mL
IC80 [27]: 0.181 µg/mL
IC50 [28]: > 50 µg/mL
IC80 [28]: > 50 µg/mL
IC50 [29]: < 0.001 µg/mL
IC80 [29]: 0.005 µg/mL

PG9 (antibody)
IC50 [16]: 0.038 µg/mL
IC80 [16]: 0.122 µg/mL
IC50 [17]: 0.553 µg/mL
IC80 [17]: 7.05 µg/mL
IC50 [18]: > 50 µg/mL
IC80 [18]: > 50 µg/mL
IC50 [19]: 0.025 µg/mL
IC80 [19]: 0.068 µg/mL
IC50 [20]: > 50 µg/mL
IC80 [20]: > 50 µg/mL
IC50 [21]: 20.6 µg/mL
IC80 [21]: > 50 µg/mL
IC50 [22]: 0.503 µg/mL
IC80 [22]: 4.06 µg/mL
IC50 [23]: 1.75 µg/mL
IC80 [23]: 6.33 µg/mL
IC50 [24]: 0.024 µg/mL
IC80 [24]: 0.146 µg/mL
IC50 [25]: 0.899 µg/mL
IC80 [25]: 4.52 µg/mL
IC50 [26]: 4.08 µg/mL
IC80 [26]: > 50 µg/mL
IC50 [27]: 0.038 µg/mL
IC80 [27]: 0.094 µg/mL
IC50 [28]: 0.045 µg/mL
IC80 [28]: 0.172 µg/mL
IC50 [29]: 0.005 µg/mL
IC80 [29]: 0.014 µg/mL

PG16 (antibody)
IC50 [16]: 0.044 µg/mL
IC80 [16]: 0.25 µg/mL
IC50 [17]: 0.858 µg/mL
IC80 [17]: > 50 µg/mL
IC50 [18]: > 50 µg/mL
IC80 [18]: > 50 µg/mL
IC50 [19]: 0.005 µg/mL
IC80 [19]: 0.018 µg/mL
IC50 [20]: > 50 µg/mL
IC80 [20]: > 50 µg/mL
IC50 [21]: > 50 µg/mL
IC80 [21]: > 50 µg/mL
IC50 [22]: 1.01 µg/mL
IC80 [22]: 24.5 µg/mL
IC50 [23]: > 50 µg/mL
IC80 [23]: > 50 µg/mL
IC50 [24]: 0.024 µg/mL
IC80 [24]: 3.07 µg/mL
IC50 [25]: 1.5 µg/mL
IC80 [25]: 22.8 µg/mL
IC50 [26]: 0.435 µg/mL
IC80 [26]: > 50 µg/mL
IC50 [27]: 0.007 µg/mL
IC80 [27]: 0.026 µg/mL
IC50 [28]: 0.075 µg/mL
IC80 [28]: 1.71 µg/mL
IC50 [29]: 0.002 µg/mL
IC80 [29]: 0.005 µg/mL

3BNC117 (antibody)
IC50 (Titer in TZM.bl cells) [1]: 0.15 µg/mL
IC80 (Titer in TZM.bl cells) [1]: 0.52 µg/mL
IC50 [2]: 0.22 µg/mL
IC80 [2]: 0.75 µg/mL
IC50 (Titer in TZM.bl cells) [3]: 0.22 µg/mL
IC80 (Titer in TZM.bl cells) [3]: 0.85 µg/mL
IC50 [4]: 0.13 µg/mL
IC80 [4]: 0.49 µg/mL
IC50 (Titer in TZM.bl cells) [5]: 0.05 µg/mL
IC80 (Titer in TZM.bl cells) [5]: 0.22 µg/mL
IC50 (Titer in TZM.bl cells) [6]: 0.02 µg/mL
IC80 (Titer in TZM.bl cells) [6]: 0.14 µg/mL
IC50 [7]: 0.21 µg/mL
IC80 [7]: 0.85 µg/mL
IC50 (Titer in TZM.bl cells) [8]: 0.08 µg/mL
IC80 (Titer in TZM.bl cells) [8]: 0.27 µg/mL
IC50 [9]: < 0.01 µg/mL
IC80 [9]: 0.01 µg/mL
IC50 [10]: 0.08 µg/mL
IC80 [10]: 0.99 µg/mL
IC50 (Titer in TZM.bl cells) [11]: > 15 µg/mL
IC80 (Titer in TZM.bl cells) [11]: > 15 µg/mL
IC50 [12]: 0.05 µg/mL
IC80 [12]: 0.19 µg/mL
IC50 (Titer in TZM.bl cells) [13]: 0.05 µg/mL
IC80 (Titer in TZM.bl cells) [13]: 0.32 µg/mL
IC50 (Titer in TZM.bl cells) [14]: 0.01 µg/mL
IC80 (Titer in TZM.bl cells) [14]: 0.05 µg/mL
IC50 (Titer in TZM.bl cells) [15]: 0.29 µg/mL
IC80 (Titer in TZM.bl cells) [15]: 2.37 µg/mL

VRC07 (antibody)
IC50 (Titer in TZM.bl cells) [1]: 1.9 µg/mL
IC80 (Titer in TZM.bl cells) [1]: 19.8 µg/mL
IC50 [2]: 0.52 µg/mL
IC80 [2]: 2.6 µg/mL
IC50 (Titer in TZM.bl cells) [3]: 0.675 µg/mL
IC80 (Titer in TZM.bl cells) [3]: 1.95 µg/mL
IC50 [30]: 0.448 µg/mL
IC80 [30]: 1.62 µg/mL
IC50 [4]: 0.5 µg/mL
IC80 [4]: 1.86 µg/mL
IC50 (Titer in TZM.bl cells) [5]: 0.085 µg/mL
IC80 (Titer in TZM.bl cells) [5]: 0.263 µg/mL
IC50 (Titer in TZM.bl cells) [6]: 0.227 µg/mL
IC80 (Titer in TZM.bl cells) [6]: 0.987 µg/mL
IC50 [7]: 0.275 µg/mL
IC80 [7]: 1.29 µg/mL
IC50 (Titer in TZM.bl cells) [8]: 0.041 µg/mL
IC80 (Titer in TZM.bl cells) [8]: 0.2 µg/mL
IC50 [9]: 0.015 µg/mL
IC80 [9]: 0.051 µg/mL
IC50 [10]: 0.031 µg/mL
IC80 [10]: 0.086 µg/mL
IC50 (Titer in TZM.bl cells) [11]: > 50 µg/mL
IC80 (Titer in TZM.bl cells) [11]: > 50 µg/mL
IC50 [12]: 0.034 µg/mL
IC80 [12]: 0.115 µg/mL
IC50 (Titer in TZM.bl cells) [13]: 0.054 µg/mL
IC80 (Titer in TZM.bl cells) [13]: 0.479 µg/mL
IC50 (Titer in TZM.bl cells) [14]: 0.027 µg/mL
IC80 (Titer in TZM.bl cells) [14]: 0.073 µg/mL
IC50 (Titer in TZM.bl cells) [15]: 0.105 µg/mL
IC80 (Titer in TZM.bl cells) [15]: 0.471 µg/mL
